Reference: patent publication US20160176924A1 (UNIVERSITY OF COPENHAGEN, published 2016)
Like-named read-outs stand apart in the source and are kept apart here. Square brackets hold non-standard residues; d marks the D form. Primed or numbered codes have the meaning given here. Ends that are not written are not given here. * marks the point of attachment. PEG6‑diacid = 4,7,10,13,16,19,22-Heptaoxapentacosane-1,25-dioic acid, O=C(O)CCOCCOCCOCCOCCOCCOCCOCCC(=O)*; PEG8‑diacid = PEG8-diacid linker: 4,7,10,13,16,19,22,25,28-nonaoxahentriacontane-1,31-dioic acid; cyclohexylethyl″ = cyclohexylethyl group on the nitrogen (N-alkyl substituent), C1CCC(CC*)CC1; PEG4‑diacid = 4,7,10,13,16-pentaoxanonadecane-1,19-dioic acid; (naphthalen-2-yl)ethyl = c1ccc2cc(CC*)ccc2c1; Cyclohexylmethyl = C1CCC(C*)CC1; NMeE = CN[C@@H](CCC(=O)O)C(=O)O; cyclohexylethyl = C1CCC(CC*)CC1; NMeA = CN[C@@H](C)C(=O)O; Bn = c1ccc(C*)cc1

Columns and labels:
[1] = molecular target: T1, HIS-PDZ1 protein (PSD-95 PDZ1, residues 61-151, with tag …) (human, UniProt P78352 61-151); experiment: FP competition, fluorescent NR2B probe
T1 construct: expressed in E. coli

[2] = molecular target: T2, HIS-PDZ2 protein (PSD-95 PDZ2, residues 155-249, with tag …) (human, UniProt P78352 155-249); experiment: FP competition, fluorescent NR2B probe
[3] = molecular target: T3, HIS-PDZ3 protein (PSD-95 PDZ3, residues 309-401, with tag …) (human, UniProt P78352 309-401); experiment: FP competition, fluorescent CRIPT probe
[4] = molecular target: T1, HIS-PDZ1 protein (PSD-95 PDZ1, residues …); experiment: FP competition, fluorescent NR2B probe; remark: listed apart in the source
[5] = molecular target: T2, HIS-PDZ2 protein (PSD-95 PDZ2, residues …); experiment: FP competition, fluorescent NR2B probe; remark: listed apart in the source
[6] = molecular target: T1, HIS-PDZ1 protein (PSD-95 PDZ1, residues …); experiment: FP competition assay (Ki), fluorescent NR2B probe displaced from the PDZ domain; bar chart
[7] = molecular target: T2, HIS-PDZ2 protein (PSD-95 PDZ2, residues …); experiment: as above
[8] = molecular target: T1, HIS-PDZ1 protein (PSD-95 PDZ1, residues …); experiment: FP competition, fluorescent NR2B probe; remark: listed apart in the source
[9] = molecular target: T2, HIS-PDZ2 protein (PSD-95 PDZ2, residues …); experiment: FP competition, fluorescent NR2B probe; remark: listed apart in the source
[10] = molecular target: T3, HIS-PDZ3 protein (PSD-95 PDZ3, residues …); experiment: FP competition, fluorescent CRIPT probe; remark: listed apart in the source
[11] = molecular target: T4, HIS-PDZ1-2 protein (PSD-95 PDZ1-2 tandem, residues 61-249, with tag …) (human, UniProt P78352 61-249); experiment: FP competition, fluorescent NR2B probe
[12] = molecular target: T2, HIS-PDZ2 protein (PSD-95 PDZ2, residues …); experiment: FP competition, fluorescent NR2B probe; remark: listed apart in the source
[13] = molecular target: T4, HIS-PDZ1-2 protein (PSD-95 PDZ1-2 …); experiment: FP competition, fluorescent NR2B probe; exact Ki not calculable
[14] = molecular target: T4, HIS-PDZ1-2 protein (PSD-95 PDZ1-2 …); experiment: ITC

B1: ATAV (68) (peptide)
peptide: ATAV
Ki [1]: 64 µM | Ki [2]: 73 µM | Ki [3]: 400 µM

B2: ATAV (73), N-cyclohexylethyl (peptide)
peptide: cyclohexylethyl-ATAV
Ki [1]: 8.9 µM | Ki [2]: 8.1 µM | Ki [3]: 89 µM

B3: ATDV (71), N-cyclohexylethyl (peptide)
peptide: {cyclohexylethyl″}-ATDV-OH
SMILES: CC(C)[C@H](NC(=O)[C@H](CC(=O)O)NC(=O)[C@@H](NC(=O)[C@H](C)NCCC1CCCCC1)[C@@H](C)O)C(=O)O
Ki [1]: 5.8 µM | Ki [2]: 3.6 µM

B4: Compound 22 (ESDV with Asp P^-1 replaced by Gln) (peptide)
peptide: ESQV
binding result [4]: binds | binding result [5]: binds

B5: Compound 23 (ESDV with Asp P^-1 replaced by Glu) (peptide)
peptide: ESEV
binding result [4]: binds | binding result [5]: binds

B6: Compound 24 (ESDV with Asp P^-1 replaced by Asn) (peptide)
peptide: ESNV
binding result [4]: binds | binding result [5]: binds

B7: Compound 38 (EMeTXV with X = Asn) (peptide)
peptide: [NMeE]TNV
binding result [6]: binds | binding result [7]: binds

B8: EMeTDV (36) (peptide)
peptide: [NMeE]TDV
fold more potent than WT peptide 1 [4]: ~3 fold

B9: EMeTQV (39) (peptide)
peptide: [NMeE]TQV
fold more potent than WT peptide 1 [4]: ~3 fold

B10: ETDV (64) (peptide)
peptide: ETDV
notes: also called 28 (ESDV with Ser P^-2 replaced by Thr)
binding result [3]: no binding

B11: ETDV (69), N-cyclohexylethyl (peptide)
peptide: {cyclohexylethyl″}-ETDV-OH
SMILES: CC(C)[C@H](NC(=O)[C@H](CC(=O)O)NC(=O)[C@@H](NC(=O)[C@H](CCC(=O)O)NCCC1CCCCC1)[C@@H](C)O)C(=O)O
Ki [1]: 1.8 µM | Ki [2]: 0.75 µM | binding result [3]: no binding

B12: ETNV (31) (peptide)
peptide: ETNV
notes: number 31 only on the sheet
binding result [6]: binds | binding result [7]: binds

B13: ETQV (32) (peptide)
peptide: ETQV
notes: number 32 only on the sheet
binding result [6]: binds | binding result [7]: binds

B14: N-(3,4-Dichlorophenyl)propyl-ETAV (61) (peptide)
peptide: ETAV
modifications: not fully specified
notes: The printed formula C25H37Cl2N4O8 and the comparison with 59 point to an ethyl spacer, the printed name says propyl
Ki [8]: 2.4 µM | Ki [9]: 1.1 µM | Ki [10]: 6.7 µM

B15: N-(3,4-Difluorophenyl)propyl-ETAV (62) (peptide)
peptide: ETAV
modifications: not fully specified
notes: The printed formula C25H37F2N4O8 points to an ethyl spacer, the printed name says propyl
Ki [8]: 0.98 µM | Ki [9]: 1 µM | Ki [10]: 7.8 µM

B16: N-(Naphtalene-2-yl)ethyl-ETAV (63) (peptide)
peptide: {(naphthalen-2-yl)ethyl}-ETAV
Ki [8]: 1 µM | Ki [9]: 0.95 µM | Ki [10]: 10 µM

B17: N-Benzyl-ETAV (58) (peptide)
peptide: Bn-ETAV
Ki [8]: 7.2 µM | Ki [9]: 5.2 µM | Ki [10]: 63 µM

B18: N-Butyl-ETAV (54) (peptide)
peptide: butyl-ETAV
Ki [8]: 8.4 µM | Ki [9]: 4 µM

B19: N-Cyclohexylethyl-ETAV (56) (peptide)
peptide: cyclohexylethyl-ETAV
Ki [8]: 0.94 µM | Ki [9]: 0.45 µM | Ki [10]: 11 µM | Ki [1]: 0.94 µM | Ki [2]: 0.45 µM | Ki [3]: 11 µM

B20: N-Cyclohexylmethyl-ETAV (55) (peptide)
peptide: Cyclohexylmethyl-ETAV
Ki [8]: 1 µM | Ki [9]: 1.3 µM | Ki [10]: 21 µM

B21: N-Ethyl-ETAV (52) (peptide)
peptide: Et-ETAV
Ki [8]: 9.3 µM | Ki [9]: 9.6 µM | Ki [10]: 69 µM

B22: N-Phenylethyl-ETAV (59) (peptide)
peptide: Phenylethyl-ETAV
Ki [9]: 1.6 µM

B23: N-Phenylpropyl-ETAV (60) (peptide)
peptide: phenylpropyl-ETAV
Ki [9]: 3.1 µM

B24: QTAV (67) (peptide)
peptide: QTAV
Ki [1]: 112 µM | Ki [2]: 108 µM

B25: QTAV (72), N-cyclohexylethyl (peptide)
peptide: cyclohexylethyl-QTAV
Ki [1]: 21 µM | Ki [2]: 12 µM | Ki [3]: 141 µM

B26: QTDV (70), N-cyclohexylethyl (peptide)
peptide: {cyclohexylethyl″}-QTDV-OH
binding result [3]: no binding

B27: (IATAMeV)2PEG4 (90) (peptide)
peptide: {PEG4‑diacid}-IAT[NMeA]V-OH
modifications: also: dimer: two peptides N-terminally joined via PEG4-diacid
notes: Dimeric ligand
Ki [11]: 13 µM | Ki [12]: 103 µM

B28: (IATAV)2PEG4 (88) (peptide)
peptide: IATAV
modifications: also: dimer: two peptides joined at N-terminal amines by amide bonds through a PEG4-diacid linker
notes: Dimeric ligand
Ki [11]: 1.1 µM

B29: (IATAV)2PEG12 (87) (peptide)
peptide: IATAV
modifications: also: dimer: two peptides joined at N-terminal amines by amide bonds through a PEG12-diacid linker
notes: Dimeric ligand
Ki [11]: 1 µM | Ki [12]: 13 µM

B30: IATAMeV (89) (peptide)
peptide: IAT[NMeA]V
Ki [11]: 142 µM | Ki [12]: 104 µM

B31: ETAV (51) (peptide)
peptide: ETAV
Ki [10]: 260 µM | Ki [3]: 260 µM

B32: ATDV (66) (peptide)
peptide: ATDV
Ki [1]: 30 µM | Ki [2]: 38 µM | binding result [3]: no binding

B33: QTDV (65) (peptide)
peptide: QTDV
Ki [1]: 58 µM | Ki [2]: 60 µM | binding result [3]: no binding

B34: (IESDV)2PEG8 (76) (peptide)
peptide: {PEG8‑diacid}-IESDV
modifications: also: dimer: two peptides N-terminally joined via PEG8-diacid
notes: Dimeric ligand
Ki [13]: ~0.1 µM | Kd [14]: 0.12 µM | Ki [12]: 2.6 µM

B35: (IESDV)2PEG6 (77) (peptide)
peptide: {PEG6‑diacid}-IESDV
modifications: also: dimer: two peptides N-terminally joined via PEG6-diacid
notes: Dimeric ligand
Ki [13]: ~0.1 µM | Kd [14]: 0.039 µM | Ki [12]: 2 µM

B36: Compound 79 (IESDV dimerized with PEG2-diacid) (peptide)
peptide: {PEG2‑diacid}-IESDV
modifications: also: dimer: two peptides N-terminally joined via PEG2-diacid
notes: Dimeric ligand
Kd [14]: 0.22 µM | Ki [11]: 0.27 µM | Ki [12]: 4.7 µM

B37: Compound 80 (IESDV dimerized with PEG1-diacid) (peptide)
peptide: {PEG1‑diacid}-IESDV
modifications: also: dimer: two peptides N-terminally joined via PEG1-diacid
notes: Dimeric ligand
Kd [14]: 0.46 µM | Ki [11]: 0.56 µM | Ki [12]: 4.7 µM

B38: Compound 84 (ESDV dimerized with PEG12) (peptide)
peptide: ESDV
modifications: also: dimer: two peptides joined at N-terminal amines by amide bonds through a PEG12-diacid linker
notes: Dimeric ligand
Ki [11]: 0.92 µM

B39: Compound 85 (ESDV dimerized with PEG8) (peptide)
peptide: ESDV
modifications: also: dimer: two peptides joined at N-terminal amines by amide bonds through a PEG8-diacid linker
notes: Dimeric ligand
Ki [11]: 1 µM | Ki [12]: 19 µM

B40: Compound 18 (ESDV with N-methylated Glu at P^-3) (peptide)
peptide: [NMeE]SDV
fold higher Ki compared to peptide 1 [4]: 1.3 fold | fold higher Ki compared to peptide 1 [5]: 3.7 fold
